Where a chain is given by its changes, count along the chain named. Read-outs that look alike come from different tables or passages of the source.
How the values were obtained:
Hsf;Ttk69 = Hsf;Ttk69 (Drosophila melanogaster?;Drosophila …, UniProt P22813;P17789 1-691;1-643, |); assay: EMSA
GAF (GAGA factor) = molecular target: T1, GAF (GAGA factor) (UniProt Q08605 1-582); assay: EMSA
T1 sequence: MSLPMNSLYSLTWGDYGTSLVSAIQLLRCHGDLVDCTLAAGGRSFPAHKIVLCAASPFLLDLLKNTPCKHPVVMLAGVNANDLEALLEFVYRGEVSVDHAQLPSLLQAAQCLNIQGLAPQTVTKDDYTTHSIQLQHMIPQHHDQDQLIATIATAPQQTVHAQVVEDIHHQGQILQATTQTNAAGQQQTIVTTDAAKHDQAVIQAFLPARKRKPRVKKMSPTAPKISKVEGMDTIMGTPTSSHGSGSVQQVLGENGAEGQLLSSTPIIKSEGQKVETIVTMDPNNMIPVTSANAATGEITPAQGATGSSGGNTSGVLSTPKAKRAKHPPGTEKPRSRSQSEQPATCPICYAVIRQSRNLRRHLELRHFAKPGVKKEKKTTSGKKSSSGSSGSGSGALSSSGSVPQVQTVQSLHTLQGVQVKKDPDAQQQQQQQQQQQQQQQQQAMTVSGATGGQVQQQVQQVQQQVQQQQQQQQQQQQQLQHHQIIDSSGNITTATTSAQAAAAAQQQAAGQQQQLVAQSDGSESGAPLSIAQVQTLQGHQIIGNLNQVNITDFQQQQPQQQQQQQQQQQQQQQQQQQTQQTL

GAF (GAGA factor);Ttk69 = GAF (GAGA factor);Ttk69 (Drosophila melanogaster?;Drosophila …, UniProt Q08605;P17789 1-582;1-643, |); assay: EMSA
[1] = molecular target: T2, GAF (GAGA factor);Hsf-S378D (Drosophila melanogaster?;Drosophila …, UniProt Q08605;P22813 1-582;1-691, |S378D); assay: EMSA
T2 sequence 1: T1 sequence
T2 sequence 2: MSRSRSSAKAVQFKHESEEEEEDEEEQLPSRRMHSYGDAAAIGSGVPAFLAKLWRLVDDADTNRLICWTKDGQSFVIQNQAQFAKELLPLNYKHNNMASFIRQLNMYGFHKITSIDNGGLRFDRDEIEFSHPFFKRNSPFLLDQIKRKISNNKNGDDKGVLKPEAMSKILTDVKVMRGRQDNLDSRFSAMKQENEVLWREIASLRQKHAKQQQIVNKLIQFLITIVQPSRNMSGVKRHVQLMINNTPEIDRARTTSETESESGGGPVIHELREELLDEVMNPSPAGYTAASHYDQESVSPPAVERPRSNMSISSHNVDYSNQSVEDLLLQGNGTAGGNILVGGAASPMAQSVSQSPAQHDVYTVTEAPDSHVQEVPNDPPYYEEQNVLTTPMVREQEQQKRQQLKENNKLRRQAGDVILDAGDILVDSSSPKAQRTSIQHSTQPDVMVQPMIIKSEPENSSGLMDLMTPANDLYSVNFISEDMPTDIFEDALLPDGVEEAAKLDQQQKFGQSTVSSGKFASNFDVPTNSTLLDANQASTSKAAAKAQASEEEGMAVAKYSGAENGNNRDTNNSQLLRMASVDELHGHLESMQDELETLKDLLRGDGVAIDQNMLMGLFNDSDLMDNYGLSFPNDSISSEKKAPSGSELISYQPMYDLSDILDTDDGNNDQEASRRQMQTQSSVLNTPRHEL

Ttk69 = Ttk69 (UniProt P17789 1-643); assay: EMSA
Hsf = molecular target: T3, Hsf (UniProt P22813 1-691); assay: EMSA
T3 sequence: T2 sequence 2 with D378S

[2] = molecular target: T4, GAF (GAGA factor);Hsf;Ttk69 (Drosophila melanogaster?;Drosophila …, UniProt Q08605;P22813;P17789 1-582;1-691;1-643, ||); assay: competition
[3] = molecular target: T4, GAF (GAGA factor);Hsf;Ttk69; assay: competition; remark: listed apart in the source

B1: tor-RE 25-bp probe (dsDNA)
DNA 1: CGTTCCTTGCTCAATGAATTTTTCG
DNA 2: CGAAAAATTCATTGAGCAAGGAACG
- binding result (Hsf;Ttk69): no binding
- binding result (GAF (GAGA factor)): binds
- binding signal (GAF (GAGA factor);Ttk69): 5 fold vs GAF alone
- binding result [1]: binds
- binding result (Ttk69): no binding
- binding result (Hsf): no binding

B2: TBS competitor (dsDNA)
DNA 1: TCCTCATGGTCCTGCCGAGCAG
DNA 2: CTGCTCGGCAGGACCATGAGGA
- binding result [2]: no binding

B3: HSE competitor (dsDNA)
DNA 1: CGCCTCGAATGTTCGCGAAAAGAGCGCCGG
DNA 2: CCGGCGCTCTTTTCGCGAACATTCGAGGCG
- binding result [3]: binds
